This assay addresses Recombinant human IL-17A (Sino Biological, 12047-HNAS) (human) (UniProt Q16552). Briefly: indirect ELISA, human IL-17A coated (Table 7, not in this copy).

Sequence of Recombinant human IL-17A (Sino Biological, 12047-HNAS) (human) (Q16552 24-155): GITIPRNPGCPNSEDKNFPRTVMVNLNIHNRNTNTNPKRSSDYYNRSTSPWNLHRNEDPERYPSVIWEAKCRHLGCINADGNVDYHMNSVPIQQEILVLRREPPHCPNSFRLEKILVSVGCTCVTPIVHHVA

B1: 杂交瘤14F10/9F6产生的鼠源抗体 (antibody, V domains shown)
VH: QVQLQQSGPEVVRPGVSVKISCKGSGYTFTDYAMHWVKQSHAKSLEWIGVIGPYNDNTNYNQKFKGKATMTVDKSSSTAYMEIARLTSEDSAIYYCARGERYFDYWGQGTTLTVSS
VL: DIQMTQSSSYLSVSLGGRVTITCRASDHINNWLAWYQQKPGNAPRLLIYGATSLETGVPSRFSGSGSGKDYTLSITSLQTEDVATYYCQQYWTIPLTFGAGTKLELK
Regarding B1, the EC50 ratio to the humanized antibody was determined as 3 fold.

These data come from patent publication CN107522783A.
